Where “and” joins values, the source holds several entries; their conditions need not be identical. Equal entries are not always repeated.
T1: GST-NgR (extracellular domain of NgR) (Homo sapiens, UniProt Q9BZR6)
T1 construct: a GST fusion protein containing the entire extracellular domain of NgR (GST-NgR); made in house; OM-his made in COS-7 cells
T1 sequence (Q9BZR6 27-447 limits assumed): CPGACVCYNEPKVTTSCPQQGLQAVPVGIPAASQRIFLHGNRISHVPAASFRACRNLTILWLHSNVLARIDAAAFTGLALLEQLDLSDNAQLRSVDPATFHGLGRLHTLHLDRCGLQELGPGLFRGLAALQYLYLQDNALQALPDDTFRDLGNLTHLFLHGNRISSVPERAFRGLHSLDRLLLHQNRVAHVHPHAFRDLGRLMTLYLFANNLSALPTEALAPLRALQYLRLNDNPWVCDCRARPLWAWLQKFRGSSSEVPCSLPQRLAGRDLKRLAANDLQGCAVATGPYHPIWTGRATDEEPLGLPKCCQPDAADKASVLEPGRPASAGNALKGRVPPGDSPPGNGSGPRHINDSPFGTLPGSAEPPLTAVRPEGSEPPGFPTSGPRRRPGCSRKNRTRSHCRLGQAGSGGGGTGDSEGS

B1: AP-66: alkaline phosphatase fusion protein containing the 66 amino acid extracellular domain of Nogo-A (protein)
chain: RIYKGVIQAIQKSDEGHPFRAYLESEVAISEELVQKYSNSALGHVNCTIKELRRLFLVDDLVDSLK
modifications: also: fused to alkaline phosphatase
notes: alkaline phosphatase fusion protein containing the 66 amino acid extracellular domain of Nogo-A
B2: OMgp: oligodendrocyte-myelin glycoprotein, GPI-anchored CNS myelin protein (protein, UniProt P23515 25-417, looked up)
Oligodendrocyte-myelin …: ICPLQCICTERHRHVDCSGRNLSTLPSGLQENIIHLNLSYNHFTDLHNQLTQYTNLRTLDISNNRLESLPAHLPRSLWNMSAANNNIKLLDKSDTAYQWNLKYLDVSKNMLEKVVLIKNTLRSLEVLNLSSNKLWTVPTNMPSKLHIVDLSNNSLTQILPGTLINLTNLTHLYLHNNKFTFIPDQSFDQLFQLQEITLYNNRWSCDHKQNITYLLKWMMETKAHVIGTPCSTQISSLKEHNMYPTPSGFTSSLFTVSGMQTVDTINSLSVVTQPKVTKIPKQYRTKETTFGATLSKDTTFTSTDKAFVPYPEDTSTETINSHEAAAATLTIHLQDGMVTNTSLTSSTKSSPTPMTLSITSGMPNNFSEMPQQSTTLNLWREETTTNVKTPLPS
B3: OM-his: purified recombinant polyhistidine-tagged mouse OMgp protein (amino acids 23-392) expressed in COS-7 cells (protein)
chain: LCICPLQCTCTERHRHVDCSGRNLTTLPPGLQENIIHLNLSYNHFTDLHNQLTPYTNLRTLDISNNRLESLPAQLPRSLWNMSAANNNIKLLDKSDTAYQWNLKYLDVSKNMLEKVVLIKNTLRSLEVLNLSSNKLWTVPTNMPSKLHIVDLSNNSLTQILPGTLINLTNLTHLYLHNNKFTFIPEQSFDQLLQLQEITLHNNRWSCDHKQNITYLLKWVMETKAHVIGTPCSKQVSSLKEQSMYPTPPGFTSSLFTMSEMQTVDTINSLSMVTQPKVTKTPKQYRGKETTFGVTLSKDTTFSSTDRAVVAYPEDTPTEMTNSHEAAAATLTIHLQDGMSSNASLTSATKSPPSPVTLSIARGMPNNFSE
modifications: left off: small tags and cut ends
notes: purified recombinant polyhistidine-tagged mouse OMgp protein (amino acids 23-392) expressed in COS-7 cells
B4: Semaphorin 3A: control growth cone collapsing protein acting through neuropilin-1 and plexin receptors (protein, UniProt Q14563 21-771, looked up)
Semaphorin-3A: NYQNGKNNVPRLKLSYKEMLESNNVITFNGLANSSSYHTFLLDEERSRLYVGAKDHIFSFDLVNIKDFQKIVWPVSYTRRDECKWAGKDILKECANFIKVLKAYNQTHLYACGTGAFHPICTYIEIGHHPEDNIFKLENSHFENGRGKSPYDPKLLTASLLIDGELYSGTAADFMGRDFAIFRTLGHHHPIRTEQHDSRWLNDPKFISAHLISESDNPEDDKVYFFFRENAIDGEHSGKATHARIGQICKNDFGGHRSLVNKWTTFLKARLICSVPGPNGIDTHFDELQDVFLMNFKDPKNPVVYGVFTTSSNIFKGSAVCMYSMSDVRRVFLGPYAHRDGPNYQWVPYQGRVPYPRPGTCPSKTFGGFDSTKDLPDDVITFARSHPAMYNPVFPMNNRPIVIKTDVNYQFTQIVVDRVDAEDGQYDVMFIGTDVGTVLKVVSIPKETWYDLEEVLLEEMTVFREPTAISAMELSTKQQQLYIGSTAGVAQLPLHRCDIYGKACAECCLARDPYCAWDGSACSRYFPTAKRRTRRQDIRNGDPLTHCSDLHHDNHHGHSPEERIIYGVENSSTFLECSPKSQRALVYWQFQRRNEERKEEIRVDDHIIRTDQGLLLRSLQQKDSGNYLCHAVEHGFIQTLLKVTLEVIDTEHLEELLHKDDDGDGSKTKEMSNSMTPSQKVWYRDFMQLINHPNLNTMDEFCEQVWKRDRKQRRQRPGHTPGNSNKWKHLQENKKGRNRRTHEFERAPRSV

Key:
[1] = test system: growth cones of E13 chick DRG neurons; assay: Growth cone collapse assay with E13 chick DRG explants; type: cell-based; details: for EC50: E13 chick DRG growth cones, read-out: effective concentration for half-maximal response (EC50), growth cone collapse; for growth cone collapsing activity after PI-PLC treatment of the neurons: PI-PLC pre-incubation
Excerpt: OMgp is a Physiological Nogo Receptor Ligand and Inhibitor of Neurite Outgrowth. To examine whether any GPI-linked proteins in CNS myelin may act as inhibitors of neurite outgrowth, we treated purified bovine white matter myelin with phosphatidylinositol-specific phospholipase C (PI-PLC) and examined the released proteins for their ability to alter growth cone morphology in a growth cone collapse assay using embryonic day 13 chick dorsal root ganglia (E13 DRG)^6,9,10. […] Since the size of this band was similar to that of a previously identified CNS myelin protein OMgp^11,12, we used antibodies specific for OMgp to detect enrichment of cleaved OMgp in the PI-PLC supernatants by Western blot. […] Next, we examined whether purified recombinant OMgp protein was able to act as an inhibitor of neurite outgrowth in two well-established in vitro assays, the growth cone collapse^6,9,13 and the neurite outgrowth assays^3-7,9.
Growth Cone Collapse and Neurite Outgrowth Assays. Chick E13 DRG and E7 retina were isolated and cultured as described previously^9,10. DRG explants cultured overnight were used for growth cone collapse assays. To assess the effects of PI-PLC treatment, cultures were pre-incubated with 2 U/ml PI-PLC for 30 min prior to treatment with individual test proteins for an additional 30 min. To express NgR in E7 retinal ganglion neurons, we infected the explants with recombinant HSV for 24 hr. After incubation with each test protein for 30 min, retinal explants were fixed in 4% paraformaldehyde and 15% sucrose. Infection of HSV-LacZ was detected by a standard b-galatosidase staining protocol^20. FLAG-NgR expression was detected by incubating paraformaldehyde-fixed cultures with M2 anti-FLAG antibody (Sigma). Bound antibody was detected by incubation with AP-conjugated […] IgG second antibody and reaction with NBT and BCIP (Vector labs). Growth cone collapse was quantified only in those positively stained for b-galatosidase or immunoreactive for the FLAG epitope.

[2] = target: T1, GST-NgR (extracellular domain of NgR); assay: Co-precipitation with GST-NgR on glutathione-Agarose beads; type: binding; details: for competition for binding to NgR: cell surface binding and co-precipitation assay
Protocol: To investigate the mechanisms by which OMgp inhibits neurite outgrowth, we used an expression cloning strategy^9,13,16 to identify cell surface OMgp-binding proteins. […] From pools of an adult human brain cDNA expression library, we isolated two cDNAs that encoded OMgp-binding proteins. […] We then established a CHO cell line stably expressing the NgR and determined the binding affinity of expressed NgR for AP-OM as 5 nM, similar to what had been determined for Nogo-66 (7 nM, ref. 9). […] We next performed co-precipitation experiments by incubating GST or a GST fusion protein containing the entire extracellular domain of NgR (GST-NgR) with OM-his alone or in the presence of AP or AP-66 protein. […] We next determined which domain(s) of OMgp was responsible for binding to NgR. Like NgR, OMgp is also a GPI-linked protein containing a leucine-rich repeat (LRR) domain. […] In addition, the C-terminal domain with serine-threonine repeats (AP-S/T) alone was also able to bind, though less strongly, to NgR expressing cells.
In co-precipitation experiments, 2 mg GST or GST-NgR were first immobilized to glutathione-Agarose beads and the beads were further incubated with or without 1 mg OM-his in the presence of 2 mg of AP or AP-66 at 4° C. for 2 hr. After extensive washing, the bound proteins were resolved with SDS-PAGE and detected by Western blotting.

[3] = test system: chick E7 retinal ganglion neurons (RGN) expressing human NgR; assay: Growth cone collapse in E7 retinal ganglion neurons expressing FLAG-NgR (HSV infection); type: cell-based; details: E7 RGN infected with HSV FLAG-NgR
Excerpt: To assess whether NgR is capable of mediating OMgp-induced inhibitory activity on neurite outgrowth, we next took a gain-of-function approach to examine whether expression of NgR was able to confer OMgp-responsiveness to otherwise insensitive neurons. It has been shown previously that chick E7 retinal ganglion neurons (RGN) are insensitive to Nogo-66, but that introduction of exogenous NgR in these neurons rendered their growth cones to be responsive to Nogo-66^9. Using the same strategy, we made a recombinant herpes simplex virus (HSV) that drives expression of a FLAG-tagged full-length human NgR (FLAG-NgR) in infected neurons. Upon infection, 80% of the E7 RGNs expressed the FLAG-NgR protein as assessed by immunocytochemistry with an anti-FLAG antibody. […] Furthermore, the growth cones of NgR-expressing axons also become collapsible by OMgp.
Growth Cone Collapse and Neurite Outgrowth Assays. […] Infection of HSV-LacZ was detected by a standard b-galatosidase staining protocol^20. FLAG-NgR expression was detected by incubating paraformaldehyde-fixed cultures with M2 anti-FLAG antibody (Sigma). Bound antibody was detected by incubation with AP-conjugated […] IgG second antibody and reaction with NBT and BCIP (Vector labs). Growth cone collapse was quantified only in those positively stained for b-galatosidase or immunoreactive for the FLAG epitope.

[4] = test system: cerebellar granule neurons (CGN); assay: Neurite outgrowth assay with cerebellar granule neurons; type: cell-based; details: P7-9 rat CGN
Excerpt: To deplete OMgp, myelin was first solublized with 1% octylglucoside and the resultant extract was passed twice through columns with PNA-Agarose (Vector Laboratories) or control Agarose beads as described previously^12. The OMgp-enriched fraction was obtained by eluting the PNA-Agarose column with buffer containing 0.5 M D-galactose. As a significant portion of OMgp co-fractionated with Nogo-A in anion exchange columns^12, we enriched MAG or Nogo-A from myelin by applying the flow-through fractions from the PNA-Agarose columns onto a Q-Sepharose (Sigma) column^15. The column was then eluted stepwise with equal amount of buffers containing 0.15 M (MAG-enriched), 0.45 M (Nogo-A enriched), or 1.0 M NaCl^15. Aliquots of individual fractions were tested for their inhibitory activity in the neurite outgrowth assay as described previously^15,16,21.
Neurite outgrowth assays were performed as described previously^15,21. Briefly, P7-9 rat CGNs were dissected and then plated at a density of 1×10^5 cells per well. The cells were cultured for 24 hr prior to fixation with 4% paraformaldehyde and staining with a neuronal specific anti-b-tubulin antibody (TuJ-1, Covance). Quantification of neurite length and statistical analysis were performed as described previously^22.

| Molecule | EC50 [1] | competition for binding to NgR [2] | growth cone collapsing activity after PI-PLC treatment of the neurons ([1]; E13 chick DRG) | growth cone collapse response in NgR-expressing neurons [3] | growth cone collapsing activity ([1]; E13 chick DRG) | inhibition of neurite outgrowth [4] | direct binding to GST-NgR ([2]; co-precipitation, control GST did not bind) |
| --- | --- | --- | --- | --- | --- | --- | --- |
| B1 | 2.3 nM | competed for binding to NgR | – | – | – | – | – |
| B2 | – | – | abolished | collapsible | – | – | – |
| B3 | ~1.5 nM and 1.5 nM | competed for binding to NgR | – | – | induced the collapse of growth cones | inhibited neurite outgrowth | bound |
| B4 | – | – | not affected | – | – | – | – |
